Results published in article PMC12636033, “Chemical Engineering of Transcription Factors Uncovered Cell-Permeable μMax Modulators”.

B1: dBr_Jan07_33198 (dsDNA)
DNA 1: GCATAAACAAGGCCGCTGTAGCGGTTCGGTGCACGTGTCTGTGTTCCGTTGTCCGTGCTG
DNA 2: CAGCACGGACAACGGAACACAGACACGTGCACCGAACCGCTACAGCGGCCTTGTTTATGC
B2: E-box DNA probe (dsDNA)
DNA 1: CCGGCTGACACGTGGTATTAAT
DNA 2: ATTAATACCACGTGTCAGCCGG
B3: dBr_Jan07_37076 (dsDNA)
DNA 1: AAAACGTTCCGAGCCATTTAGAAGGGGTCACGTGATGTCTGTGTTCCGTTGTCCGTGCTG
DNA 2: CAGCACGGACAACGGAACACAGACATCACGTGACCCCTTCTAAATGGCTCGGAACGTTTT
B4: dBr_Jan07_40162 (dsDNA)
DNA 1: CCTTGAACCATTAGCACGTGGATATATAAATCTTACGTCTGTGTTCCGTTGTCCGTGCTG
DNA 2: CAGCACGGACAACGGAACACAGACGTAAGATTTATATATCCACGTGCTAATGGTTCAAGG
B5: dBr_Jan07_34030 (dsDNA)
DNA 1: GAACGAGGGACCGCTAGGATGCCACGTGATTAAAGTGTCTGTGTTCCGTTGTCCGTGCTG
DNA 2: CAGCACGGACAACGGAACACAGACACTTTAATCACGTGGCATCCTAGCGGTCCCTCGTTC

What was measured:
[1] = target: µMax20 (UniProt P61244); test: BLI; settings: EMSA: 10 mM MES pH 6.0, 150 mM KCl, 1 mM MgCl2, 10% glycerol, room temperature, 1 uM DNA; BLI: global 1:1 fit, buffer not in material
Sequence of µMax20 (P61244 whole entry): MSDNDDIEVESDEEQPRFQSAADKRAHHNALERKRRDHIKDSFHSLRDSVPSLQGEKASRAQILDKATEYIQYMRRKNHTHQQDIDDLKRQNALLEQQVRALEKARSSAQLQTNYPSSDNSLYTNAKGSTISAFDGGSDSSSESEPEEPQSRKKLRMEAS

[2] = target: WT Max (Homo sapiens, UniProt P61244-2 13-93, M65Nle, norleucine written as M; other non-natural residues written as X); test: PBM; 50-200 nM protein; PBS, 2% milk, BSA, salmon testes DNA, 0.02% Triton X-100; settings: chain copies: 2; label: surface-attached array probe
Sequence of WT Max (P61244 other isoform, or with tags, fused parts or gaps M65Nle): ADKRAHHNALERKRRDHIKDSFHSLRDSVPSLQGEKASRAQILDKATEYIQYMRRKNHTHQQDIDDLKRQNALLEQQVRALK

[3] = target: WT Max (synthetic µMax scaffold) (UniProt P61244 22-102); test: BLI; EMSA: 10 mM MES pH 6.0, 150 mM KCl, 1 mM MgCl2, 10% glycerol, room temperature, 1 uM DNA; BLI: global 1:1 fit, buffer not in material; settings: chain copies: 2
Sequence of WT Max (synthetic µMax scaffold) (P61244 22-102): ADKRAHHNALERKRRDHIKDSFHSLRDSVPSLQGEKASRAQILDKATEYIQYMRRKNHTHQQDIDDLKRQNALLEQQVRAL

[4] = target: µMax H19Y (UniProt P61244 22-102, H28Y); test: EMSA; 3 uM protein, 1 uM DNA; EMSA: 10 mM MES pH 6.0, 150 mM KCl, 1 mM MgCl2, 10% glycerol, room temperature, 1 uM DNA; BLI: global 1:1 fit, buffer not in material; settings: chain copies: 2
Sequence of µMax H19Y (P61244 22-102 H28Y): as the sequence (P61244 22-102) above, with H7Y counted along it

Molecule	binding signal [2]	also measured
CCGGCTGACACGTGGTATTAAT (double strand) [E-box DNA probe]	–	Kd [1]: 4.38 nM
B1	3.33 robust z of log adjusted intensity (ours), mean of two arrays	–
B2	–	Kd [3]: 8.1 ± 2.24 nM; binding result [4]: binds
B3	3.31 robust z of log adjusted intensity (ours), mean of two arrays	–
B4	3.32 robust z of log adjusted intensity (ours), mean of two arrays	–
B5	3.45 robust z of log adjusted intensity (ours), mean of two arrays	–
